In US20220380463A1:
Substitutions are numbered along the chain they refer to.

B1: SAD10320_P02_E05 (antibody, V domains shown)
VH: QVQLVQSGAEVKKPGASVKVSCKASGFNIKDYYMHWVRQAPGQRLEWMGWIDLENANTIYDAKFQGRVTITRDTSASTAYMELSSLRSEDTAVYYCARDMHGRYFYDVWGQGTLVTVSS
VL: DIVMTQSPDSLAVSLGERATINCKSSQSLLNARTGKNYLAWYQQKPGQPPKLLIYWASTRESGVPDRFSGSGSGTDFTLTISSLQAEDVAVYYCKQSEHRRTFGGGTKVEIK
B2: SAD10320_P04_C10 (antibody, V domains shown)
VH: B1 VH with M100A, H101Y, R103H, Y104A
VL: B1 VL with E98Y, R100Q
B3: SAD10320_P04_D12 (antibody, V domains shown)
VH: B1 VH with M100A, H101Y, R103H, Y104D
VL: B1 VL with E98Y, H99S, R100H
B4: SAD10320_P04_G11 (antibody, V domains shown)
VH: B1 VH with M100A, H101Y, G102R, R103H, Y104E
VL: B1 VL with E98Y, H99Y, R100H
B5: SAD10320_P03_F09 (antibody, V domains shown)
VH: B1 VH with M100A, H101Y, R103H, Y104D
VL: B1 VL with E98Y
B6: SAD10320_P03_E07 (antibody, V domains shown)
VH: B1 VH with M100A, H101V, G102H
VL: B1 VL with E98Y, R100P
B7: SAD10320_P04_E11 (antibody, V domains shown)
VH: B1 VH with M100A, H101Y, R103H, Y104D
VL: B1 VL with E98Y, H99G, R100H
B8: SAD10320_P04_A12 (antibody, V domains shown)
VH: B1 VH with M100A, H101Y, R103H, Y104V
VL: B1 VL with E98Y, R100H
B9: SAD10320_P02_D06 (antibody, V domains shown)
VH: B1 VH with L45P, E46A, M100A, H101Y, R103H, Y104G
VL: B1 VL with E98Y, H99G, R100H
B10: SAD10320_P02_A06 (antibody, V domains shown)
VH: B1 VH with E46P, M100A, G102E
VL: B1 VL with E98H, H99L
B11: SAD10320_P04_F11 (antibody, V domains shown)
VH: B1 VH with M100A, H101Y, R103H, Y104E
VL: B1 VL with S97G, E98H, H99S
B12: SAD10320_P02_H06 (antibody, V domains shown)
VH: B1 VH with M100A, H101Y, Y104N, F105H
VL: B1 VL with N37S, E98Y, H99V, R100H
B13: SAD10320_P04_E12 (antibody, V domains shown)
VH: B1 VH with M100A, H101Y, R103H, Y104T
VL: B1 VL with E98Y, R100V
B14: SAD10320_P03_D08 (antibody, V domains shown)
VH: B1 VH with M100A, H101Y, R103H, Y104Q
VL: B1 VL with E98Y, R100T
B15: SAD10320_P03_H08 (antibody, V domains shown)
VH: B1 VH with M100A, H101Y, R103H, Y104V
VL: B1 VL with R33S, G35A, E98Y, H99R, R100H
B16: SAD10320_P03_C09 (antibody, V domains shown)
VH: B1 VH with K23E, M100A, H101Y, R103H, Y104V
VL: B1 VL with E98Y, H99L, R100H
B17: SAD10320_P04_A11 (antibody, V domains shown)
VH: B1 VH with E46Q, M100A, H101R, G102H
VL: B1 VL with E98Y, H99S, R100H, R101G
B18: SAD10320_P03_F08 (antibody, V domains shown)
VH: B1 VH with M100A, H101Y, R103H, Y104D
VL: B1 VL with T34P, E98Y, H99S
B19: SAD10320_P04_F10 (antibody, V domains shown)
VH: B1 VH with R44T, E46D, M100A, H101Y, Y104N, F105H
VL: B1 VL with T34P, E98Y, H99L, R100H
B20: SAD10320_P04_D11 (antibody, V domains shown)
VH: B1 VH with E46Q, M100A, H101Y, R103H, Y104V
VL: B1 VL with E98Y, R100H
B21: SAD10320_P03_A09 (antibody, V domains shown)
VH: B1 VH with M100A, H101Y, R103H, Y104V
VL: B1 VL with E98S
B22: SAD10320_P03_C08 (antibody, V domains shown)
VH: B1 VH with K23E, R44T, E46A, M100A, H101Y, R103H, Y104V
VL: B1 VL with E98Y, H99L, R100H

target: cynomolgus CD3εδ Fc heterodimer (Cy CD3ε Fc / CD3δ Fc-HIS) (cynomolgus) (UniProt Q95LI8); test: BLI (ForteBio), pH 6.0
Sequence (chain, as listed by the source mutant, chain 1 of 2): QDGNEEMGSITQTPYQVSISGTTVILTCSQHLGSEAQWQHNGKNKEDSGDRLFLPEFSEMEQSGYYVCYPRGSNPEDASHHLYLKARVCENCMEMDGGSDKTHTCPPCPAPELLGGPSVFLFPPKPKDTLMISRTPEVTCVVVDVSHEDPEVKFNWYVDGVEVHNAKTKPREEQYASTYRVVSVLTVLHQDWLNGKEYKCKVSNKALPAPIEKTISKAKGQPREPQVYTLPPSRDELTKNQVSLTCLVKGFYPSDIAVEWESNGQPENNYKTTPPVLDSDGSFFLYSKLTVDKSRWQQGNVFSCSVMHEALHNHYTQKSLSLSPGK
Sequence (Q95LI8 22-100, stated change not applied, chain 2 of 2): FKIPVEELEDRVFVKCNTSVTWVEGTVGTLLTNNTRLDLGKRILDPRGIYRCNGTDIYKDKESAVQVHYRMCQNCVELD

Row | Kd [nM] | kon [M⁻¹ s⁻¹] | Binder
1 | 14.5 | 219000 | B1
2 | 168 | 111000 | B2
3 | 13.9 | 186000 | B3
4 | 15.7 | 176000 | B4
5 | 37 | 195000 | B5
6 | 33.8 | 207000 | B6
7 | 20.1 | 148000 | B7
8 | 240 | 69700 | B8
9 | 23.4 | 265000 | B9
10 | 11.6 | 228000 | B10
11 | 9.55 | 201000 | B11
12 | 10.5 | 268000 | B12
13 | 79.8 | 136000 | B13
14 | 7.76 | 249000 | B14
15 | 181 | 82700 | B15
16 | 31.6 | 161000 | B16
17 | 29.4 | 252000 | B17
18 | 15 | 179000 | B18
19 | 8.51 | 281000 | B19
20 | 16.9 | 200000 | B20
21 | 14.6 | 199000 | B21
22 | 323 | 46900 | B22
